Data on eight molecules can be found in paper PMC6017737, “Functional Impact of the N-terminal Arm of Proline Dehydrogenase from Thermus thermophilus” (Molecules : A Journal of Synthetic Chemistry and Natural …, 2018).

Changes are numbered by the printed parent chain. In names and notes the source's numbering stands.

In data set [1] the target is T1, MBP-TtProDH ΔAB (Thermus thermophilus, UniProt Q72IB8, V32D, form not given).
T1 construct: gene TT_C1214

The target in data set [2] is T2, MBP-TtProDH ΔAB (Thermus thermophilus, UniProt Q72IB8, V36D, form not given).
T2 construct: gene TT_C1214
T2 sequence (Q72IB8 29-307 V36D, form open): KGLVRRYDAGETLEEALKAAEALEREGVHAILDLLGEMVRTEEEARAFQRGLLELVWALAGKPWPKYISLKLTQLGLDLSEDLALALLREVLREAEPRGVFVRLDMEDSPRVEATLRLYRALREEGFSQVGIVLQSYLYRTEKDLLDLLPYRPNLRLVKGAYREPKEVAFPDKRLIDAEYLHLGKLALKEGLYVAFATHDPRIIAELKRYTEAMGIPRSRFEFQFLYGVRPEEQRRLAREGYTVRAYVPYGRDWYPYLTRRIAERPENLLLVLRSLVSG

The target in another data set is T3, MBP-TtProDH ΔA (Thermus thermophilus, UniProt Q72IB8).
T3 construct: gene TT_C1214; lacks N-terminal helix αA; start 19 (QVERLIKHRAKG...) derived from printed primer; N-terminal MBP tag kept; E. coli TOP10; tetramer; FAD
In words: residual proline:DCPIP activity after incubation; flavin absorption spectra. It is filed as biochemical. Conditions: covalent; suicide inhibitor, flavin N(5)-Lys99 adduct; 40 µM enzyme, pH 7.4, 25 °C.

For data set [3], the target named is T4, MBP-TtProDH ΔAB (Thermus thermophilus, UniProt Q72IB8).
T4 construct: gene TT_C1214; lacks N-terminal helices αA and αB; start 29 (KGLVRRYVAG...) derived from printed primer and V32/Y35/V36 numbering; N-terminal MBP tag kept; E. coli TOP10; tetramer; FAD
The data set is described as above. The data set is classed as biochemical. Conditions: covalent; suicide inhibitor, flavin N(5)-Lys99 adduct; 40 µM enzyme, pH 7.4, 25 °C.

In the next data set the target is T5, MBP-TtProDH EE (Thermus thermophilus, UniProt Q72IB8, F10E/L12E, form not given).
T5 construct: gene TT_C1214; full-length, Phe10 and Leu12 replaced by Glu; N-terminal MBP tag kept; E. coli TOP10; tetramer; FAD
The description is as above. Conditions: covalent; suicide inhibitor, flavin N(5)-Lys99 adduct; 40 µM enzyme, pH 7.4, 25 °C. The data set is classed as biochemical.

Data set [4] concerns the molecule itself. In words: native MS; nanoflow ESI-MS of the native MBP-fused variants; source backing pressure 7.8 mbar, cone voltage 100-150 V.
Data set [5] concerns the molecule itself. In words: SEC; analytical gel filtration on Superdex 200 of each MBP-fused variant alone, as described in ref. 19. In general terms: In gel filtration, larger molecules generally elute earlier.
Data set [6] concerns the molecule itself. In words: SEC; 20 µM EE and 20 µM ΔABC mixed in 50 mM sodium phosphate pH 7.4, incubated at room temperature overnight, then Superdex 200 gel filtration; SDS-PAGE of the fractions.

T1 sequence (Q72IB8 29-307 V32D, form open): as the sequence (Q72IB8 29-307 V36D, form open) above, with V4D, D8V counted along it

For `C#CCNCC(=O)O` [N-propargylglycine], the “% residual activity after 90 min at 2.5 mM” value at MBP-TtProDH ΔAB [1] is 30%; at MBP-TtProDH ΔAB [2], 63%; at MBP-TtProDH ΔA, “For ΔA and ΔAB the activity loss is even more pronounced”; at MBP-TtProDH ΔAB [3] it was “For ΔA and ΔAB the activity loss is even more pronounced”; at MBP-TtProDH EE, ~ 13%.

B1: MBP-TtProDH ΔABC (MBP-TtProDH lacking helices αA, αB and αC) (domain or fragment, Thermus thermophilus, UniProt Q72IB8 38-287, looked up)
chain: GETLEEALKAAEALEREGVHAILDLLGEMVRTEEEARAFQRGLLELVWALAGKPWPKYISLKLTQLGLDLSEDLALALLREVLREAEPRGVFVRLDMEDSPRVEATLRLYRALREEGFSQVGIVLQSYLYRTEKDLLDLLPYRPNLRLVKGAYREPKEVAFPDKRLIDAEYLHLGKLALKEGLYVAFATHDPRIIAELKRYTEAMGIPRSRFEFQFLYGVRPEEQRRLAREGYTVRAYVPYGRDWYPYLT
notes: Proline dehydrogenase (TtProDH), Thermus thermophilus, lacking the whole N-terminal arm; PDB 5M42)'; the construct encodes up to residue 309, but the observed species is C-terminally truncated, cleaved before Arg288 (residues 288-309 removed); The difference of the predicted masses of ΔAB and ΔABC (75.5 against 74.4 kDa) fits a start at G38; not shown: MBP, N-terminal, kept
In general, stoichiometry N refers to the number of molecules, sites or subunits per partner or assembly. Take B1: the “stoichiometry N” value came to 4 in data set [4] and 2 in data set [5].

B2: MBP-TtProDH ΔAB (MBP-TtProDH lacking helices αA and αB) (domain or fragment, Thermus thermophilus)
chain: KGLVRRYVAGETLEEALKAAEALEREGVHAILDLLGEMVRTEEEARAFQRGLLELVWALAGKPWPKYISLKLTQLGLDLSEDLALALLREVLREAEPRGVFVRLDMEDSPRVEATLRLYRALREEGFSQVGIVLQSYLYRTEKDLLDLLPYRPNLRLVKGAYREPKEVAFPDKRLIDAEYLHLGKLALKEGLYVAFATHDPRIIAELKRYTEAMGIPRSRFEFQFLYGVRPEEQRRLAREGYTVRAYVPYGRDWYPYLTRRIAERPENLLLVLRSLVSGLE
notes: Proline dehydrogenase (TtProDH), Thermus thermophilus, lacking helices αA and αB; C-terminal tail of TtProDH (part of helix α8), residues 288-309 as printed; not shown: MBP, N-terminal, kept
For B2, the figures for the “stoichiometry N” value in data set [4] and in data set [5] were 2 and 4, respectively.

B3: MBP-TtProDH ΔAB V36D (domain or fragment, Thermus thermophilus)
chain: B2 chain with V8D
notes: Proline dehydrogenase (TtProDH), Thermus thermophilus, lacking helices αA and αB, with V36D in helix αC; C-terminal tail of TtProDH (part of helix α8), residues 288-309 as printed; lacking in a part of the preparation; The preparation is a mixture: partially intact and partially cleaved before R288 (two subunit masses, 73.0 and 75.5 kDa); Mainly dimers by SEC, tetramers and dimers by …
B3: the “stoichiometry N” value is 4 in data set [4] and 2 in data set [5].

B4: MBP-TtProDH ΔAB Y35F (domain or fragment, Thermus thermophilus)
chain: B2 chain with Y7F
notes: Proline dehydrogenase (TtProDH), Thermus thermophilus, lacking helices αA and αB, with Y35F in helix αC; C-terminal tail of TtProDH (part of helix α8), residues 288-309 as printed; Identical subunits by denaturing MS; not shown: MBP, N-terminal, kept
For the molecule B4, the “stoichiometry N” value in data set [5] was 4.

B5: MBP-TtProDH ΔAB V32D (domain or fragment, Thermus thermophilus)
chain: B2 chain with V4D
notes: Proline dehydrogenase (TtProDH), Thermus thermophilus, lacking helices αA and αB, with V32D in helix αC; C-terminal tail of TtProDH (part of helix α8), residues 288-309 as printed; lacking in a part of the preparation; The preparation is a mixture: partially intact and partially cleaved before R288 (two subunit masses, 73.0 and 75.5 kDa); Mainly dimers by SEC, tetramers and dimers by …
Consider B5, for which the entries for the “stoichiometry N” value in data set [4] and in data set [5] were 4 and 2, respectively.

B6: MBP-TtProDH variant EE (MBP-TtProDH with Phe10 and Leu12 replaced by Glu) (enzyme, Thermus thermophilus)
chain: MNLDLAYRSEVEGVAGHPQVERLIKHRAKGLVRRYVAGETLEEALKAAEALEREGVHAILDLLGEMVRTEEEARAFQRGLLELVWALAGKPWPKYISLKLTQLGLDLSEDLALALLREVLREAEPRGVFVRLDMEDSPRVEATLRLYRALREEGFSQVGIVLQSYLYRTEKDLLDLLPYRPNLRLVKGAYREPKEVAFPDKRLIDAEYLHLGKLALKEGLYVAFATHDPRIIAELKRYTEAMGIPRSRFEFQFLYGVRPEEQRRLAREGYTVRAYVPYGRDWYPYLTRRIAERPENLLLVLRSLVSGLE
notes: Proline dehydrogenase (TtProDH), Thermus thermophilus, from its start to residue 287; C-terminal tail of TtProDH (part of helix α8), residues 288-309 as printed; The last residues of the printed tail (LE) may stem from the construct and not from the natural protein (my surmise); also called MBP-TtProDH EE; not shown: MBP, N-terminal, kept
In the case of B6, in data set [6], the “stoichiometry N” value came to 4.

B7: MBP-TtProDH ΔA (MBP-TtProDH lacking helix αA) (domain or fragment, Thermus thermophilus)
chain: QVERLIKHRAKGLVRRYVAGETLEEALKAAEALEREGVHAILDLLGEMVRTEEEARAFQRGLLELVWALAGKPWPKYISLKLTQLGLDLSEDLALALLREVLREAEPRGVFVRLDMEDSPRVEATLRLYRALREEGFSQVGIVLQSYLYRTEKDLLDLLPYRPNLRLVKGAYREPKEVAFPDKRLIDAEYLHLGKLALKEGLYVAFATHDPRIIAELKRYTEAMGIPRSRFEFQFLYGVRPEEQRRLAREGYTVRAYVPYGRDWYPYLTRRIAERPENLLLVLRSLVSGLE
notes: Proline dehydrogenase (TtProDH), Thermus thermophilus, lacking helix αA; C-terminal tail of TtProDH (part of helix α8), residues 288-309 as printed; Cloned with EcoRI and HindIII into pBAD-MBP; not shown: MBP, N-terminal, kept
Regarding B7, the “stoichiometry N” value in data set [4] is 2; in data set [5] it was 4.
